Test results reported in article PMC3929958 (Molecular cell, 2013).
Read-outs that look alike come from different tables or passages of the source.

Key:
SEC = target: the molecule itself; test: SEC
[1] = target: the molecule itself; test: fluorescence polarisation
[2] = target: the molecule itself; test: fluorescence polarisation; remark: listed apart in the source
[3] = target: the molecule itself; test: fluorescence polarisation; remark: listed apart in the source
SEC-MALS = target: the molecule itself; test: SEC-MALS

B1: CARMA1 (8–302) (domain or fragment, human, UniProt Q9BXL7 8-302, looked up)
chain: MDDYMETLKDEEDALWENVECNRHMLSRYINPAKLTPYLRQCKVIDEQDEDEVLNAPMLPSKINRAGRLLDILHTKGQRGYVVFLESLEFYYPELYKLVTGKEPTRRFSTIVVEEGHEGLTHFLMNEVIKLQQQMKAKDLQRCELLARLRQLEDEKKQMTLTRVELLTFQERYYKMKEERDSYNDELVKVKDDNYNLAMRYAQLSEEKNMAVMRSRDLQLEIDQLKHRLNKMEEECKLERNQSLKLKNDIENRPKKEQVLELERENEMLKTKNQELQSIIQAGKRSLPDSDKAIL
stoichiometry N (SEC): > 100

B2: Bcl10 R36E/E50R/D51R triple mutant (natural protein)
chain: MEPTAPSLTEEDLTEVKKDALENLRVYLAEKIIAEEHFDHLRAKKILSRRRTEEISARTSSRKRAGKLLDYLQENPKGLDTLVESIRREKTQNFLIQKITDEVLKLRNIKLEHLKGLKCSSCEPFPDGATNNLSRSNSDESNFSEKLRASTVMYHPEGESSTTPFFSTNSSLNLPVLEVGRTENTIFSSTTLPRPGDPGAPPLPPDLQLEEEGTCANSSEMFLPLRSRTVSRQ
polymerization activity relative to WT Bcl10 [1]: ~50%

B3: Alexa 488-labeled Bcl10 (C29A/C57A double mutant), MBP removed by TEV (natural protein, human, UniProt O95999 1-233, looked up)
chain: MEPTAPSLTEEDLTEVKKDALENLRVYLAEKIIAERHFDHLRAKKILSREDTEEISARTSSRKRAGKLLDYLQENPKGLDTLVESIRREKTQNFLIQKITDEVLKLRNIKLEHLKGLKCSSCEPFPDGATNNLSRSNSDESNFSEKLRASTVMYHPEGESSTTPFFSTNSSLNLPVLEVGRTENTIFSSTTLPRPGDPGAPPLPPDLQLEEEGTCANSSEMFLPLRSRTVSRQ
modifications: Alexa 488 label (site not stated)
Kd [2]: 4.3 µM
Kd [3]: 0.8 µM

B4: CARMA1 (8–172) (domain or fragment, human, UniProt Q9BXL7 8-172, looked up)
chain: MDDYMETLKDEEDALWENVECNRHMLSRYINPAKLTPYLRQCKVIDEQDEDEVLNAPMLPSKINRAGRLLDILHTKGQRGYVVFLESLEFYYPELYKLVTGKEPTRRFSTIVVEEGHEGLTHFLMNEVIKLQQQMKAKDLQRCELLARLRQLEDEKKQMTLTRVE
stoichiometry N (SEC-MALS): 3
